Experimental findings from patent publication US12258605B2, “Alkane oxidation by modified hydroxylases” (The California Institute of Technology, priority 2005, dated 2025) are described below.

Assay [1] in a line: Chloromethane dehalogenation (Purpald detection of formaldehyde). It counts as biochemical. As to conditions: chloromethane, cofactor regeneration system. The text has this: The dehalogenation reaction is based on the hydroxylation of the carbon atom carrying the halogen by a spontaneous (base catalyzed) alpha-elimination reaction which leads to the formation of an aldehyde or ketone depending on the starting haloalkane. The expected reaction mechanism for the dehalogenation of a general alpha-haloalkane is described by the scheme:
To test the feasibility of this approach, chloromethane was chosen as substrate for the dehalogenation reaction. Compared to other haloalkanes, chloromethane (CM) has the advantage to be moderately soluble in water (0.5 g/100 ml) and to lead to formaldehyde as end product of the hydroxylation/alpha-elimination reaction. Formaldehyde can be then readily detected by colorimetric reaction with Purpald as described previously. To test the reaction, two BM-3 mutants from later rounds of random mutagenesis, 35-E1141 and 20-D3, were incubated in the presence of CM and a cofactor regeneration system based on NADP^+, glucose-6-phosphate and glucose-6-phosphate dehydrogenase. Reactions with wild-type P450 BM-3 and without enzyme were included as controls.
The reaction was repeated in the presence of additional BM-3 mutants, including 1-8H, 1-12G2 and the wild-type P450 BM-3 in which A328 was substituted with valine (BM-3-A328V) (FIG. 27B). […] Wild-type BM-3 was substituted with other amino acid residues at position […].
The activity of BM-3-A328V on CM and other substrates such as HME, DME, and propane was further investigated by measuring product formation rate, cofactor consumption and coupling efficiency (Table 14). This mutant was also found to be capable to hydroxylate ethane to ethanol, although only for a total of about 5-10 turnovers. In Table 14 “consumption” rates are expressed as nmol NADPH/nmol enzyme/min and “product formation” rates are expressed as nmol product/nmol enzyme/min.

Assay [2] in a line: Reactions on alkanes, total turnovers (Table 18): propane. The format is biochemical. As to conditions: for % rel. act. / TTN: propane (3 C atoms); for % rel. act.: TTN normalized to the highest value of the variant's series; for TTN: total turnovers, standardized reaction conditions. The protocol: Reactions on alkanes. Reactions with alkanes from pentane to decane were carried out at 3 mL-scale using 100 mM KPi pH 8.0 buffer containing 2% ethanol (to allow alkane solubilization) and purified protein. 2.5 mL KPi buffer were added with 60 μL of 90 mM alkane solution in ethanol (final conc.=1.8 mM), 150 μL enzyme solution at 1 μM (final conc.=50 nM), and 300 μL NADPH regeneration solution (100 units/mL isocitrate dehydrogenase, 70 mg/mL isocitrate, 1.5 mg/ml NADP^+). Vials were sealed and stirred for 24 hours at 4° C. 1 mL-aliquot of the reaction was removed, added with 10 μl internal standard (25 mM 1-bromohexane in ethanol), and extracted with 200 μl chloroform (30 sec vortexing, 1 min centrifugation at 10000 g). The organic phase was removed and analyzed by gas chromatography. Reactions with ethane, propane, and butane were carried out as described for longer alkanes with the only difference that alkane-saturated KPi buffer was used. Propane reactions with variants from HL5 and L9 libraries were performed on 1 mL-scale reaction using 20 nM enzyme to reduce oxygen limitation. Propane and butane reactions were analyzed by direct injection of reaction solution on the GC using 1-pentanol as internal standard. Ethane reaction products were functionalized (see below) and analyzed by GC using 1-butanol as internal standard. All measurements were performed in triplicate.
Products from alkane reactions were identified and quantified by gas chromatography using authentic standards and calibration curves with internal standards. For the reactions with alkanes from pentane to decane, GC analyses were carried out using a Shimadzu GC-17A gas chromatograph, Agilent HP5 column (30 m×0.32 mm×0.1 μm film), 1 μL injection, FID detector, and the following separation program: 250° C. inlet, 250° C. detector, 50° C. oven for 3 min, 5° C./min gradient to 100° C., 25° C./min gradient to 230° C., and 230° C. for 3 min. For butane and propane (TTN) reactions, GC analyses were carried out using a Hewlett-Packard 5890 Series II Plus gas chromatograph, Supelco SPB-1 column (60 m×0.52 mm×0.5 μm film), 0.5 μL injection, FID detector, and the following separation program: 250° C. inlet, 275° C. detector, 80° C. oven for 2 min, 10° C./min gradient to 110° C., 25° C./min gradient to 275° C., and 275° C. for 2.5 min. For ethane and propane (rate) reactions, analysis of reaction mixtures was carried out by derivatization to alkyl nitrites followed by GC-ECD analysis. For laurate, reaction product analysis was carried out by derivatization with N-methyl-N-trimethylsilylheptafluorobutyramide followed by extraction with hexane. Organic solutions were analyzed by FID-GC.
Because 35E11 was only marginally stable, the engineering strategy described herein (see below) involved an initial stabilization step followed by iterative rounds of mutagenesis and screening. Random, saturation and site-directed mutagenesis methods were used to create libraries of mutants (FIG. 35), which were screened for activity on a propane surrogate, dimethyl ether. Positives were confirmed in a re-screen and purified for further analysis. Reactions with purified enzymes were carried out in sealed vials in the presence of propane-saturated buffer and a cofactor regeneration system. Improvement in propane total turnover number-moles of propanol produced per mole of enzyme—was a selection criterion for taking a mutant to the next round.
TTNs for each variant-substrate pair were determined using standardized reaction conditions (identical enzyme and substrate concentration, incubation time, cofactor regeneration system) (Table 18). TTN values were used to assess performance because TTN is a cumulative measure of both catalytic and coupling efficiency and because mutants were selected based on improvement in this property. […]

B1: 35-E11: P450 BM-3 variant, SEQ ID NO:7: 53-5H substitutions plus E464G and I710T (protein)
chain: TIKEMPQPKTFGELKNLPLLNTDKPVQALMKIADELGEIFKFEAPGCVTRYLSSQRLIKEACDESRFDKNLSQALKFFRDFSGDGLFTSWTHEINWKKAHNILLPSFSQQAMKGYHAMMVDIAVQLVQKWERLNADEHIEVSEDMTRLTLDTIGLCGFNYRFNSFYRDQPHPFIISMVRALDEVMNKLQRANPDDPAYDENKRQCQEDIKVMNDLVDKIIADRKARGEQSDDLLTQMLNGKDPETGEPLDDGNISYQIITFLIAGHETTSGLLSFALYFLVKNPHVLQKVVEEAARVLVDPVPSYKQVKQLKYVGMVLNEALRLWPTFPAFSLYAKEDTVLGGEYPLEKGDEVMVLIPQLHRDKTIWGDDVEEFRPERFENPSAIPQHAFKPFGNGQRACIGQQFALHEATLVLGMMLKHFDFEDHTNYELDIKETLTLKPEGFVVKAKSKKIPLGGIPSPSTGQSAKKVRKKAENAHNTPLLVLYGSNMGTAEGTARDLADIAMSKGFAPQVATLDSHAGNLPREGAVLIVTASYNGHPPDNAKQFVDWLDQASADEVKGVRYSVFGCGDKNWATTYQKVPAFIDETLAAKGAENIADRGEADASDDFEGTYEEWREHMWSDVAAYFNLDIENSEDNKSTLSLQFVDSAADMPLAKMHGAFSTNVVASKELQQPGSARSTRHLEIELPKEASYQEGDHLGVIPRNYEGTVNRVTARFGLDASQQIRLEAEEEKLAHLPLAKTVSVEELLQYVELQDPVTRTQLRAMAAKTVCPPHKVELEALLEKQAYKEQVLAKRLTMLELLEKYPACEMKFSEFIALLPSIRPRYYSISSSPRVDEKQASITVSVVSGEAWSGYGEYKGIASNYLAELQEGDTITCFISTPQSEFTLPKDPETPLIMVGPGTGVAPFRGFVQARKQLKEQGQSLGEAHLYFGCRSPHEDYLYQEELENAQSEGIITLHTAFSRMPNQPKTYVQHVMEQDGKKLIELLDQGAHFYICGDGSQMAPAVEATLMKSYADVHQVSEADARLWLQQLEEKGRYAKDVWAG
modifications: mutant P450 35-E11 protein sequence
On to B1, for which, in assay [1], the “colorimetric response (Purpald)” value was “specific colorimetric response”. Besides, in assay [2], the “% rel. act.” value is reported as 71.7% and the TTN worked out at 4550 ± 350.

B2: P450PMO: P450 BM-3 variant, SEQ ID NO:125; 7-7 plus G443A and D698G; propane monooxygenase (protein)
chain: TIKEMPQPKTFGELKNLPLLNTDKPVQALMKIADELGEIFKFEAPGCVTRYISSQRLIKEACDESRFDKNLSQELKFFRDFGGDGLFTSWTHEINWKKAHNILLPSFSQQAMKGYHAMMVDIAVQLVQKWERLNADEHIEVSEDMTRLTLDTIGLCGFNYRFNSFYRDQPHPFIISMVRALDEVMNKPQRANPDDPAYDENKRQCQEDIKVMNDLVDKIIADRKARGEQSDDLLTQMLNGKDPETGEPLDDGNISYQIITFLIAGHETTSGLLSFALYFLVKNPHVLQKVVEEAARVLVDPVPSYKQVKQLKYVGMVLNEALRLWPTFPAFSLYAKEDTVLGGEYPLEKGDEVMVLIPQLHRDKTVWGDDVEEFRPERFENPSAIPQHAFKPFGNGQRACIGQQFALHEATLVLGMMLKHFDFEDHTNYELDIKETLTLKPEAFVVKAKSKKIPLGGIPSPSTGQSAKKVRKKAENAHNTPLLVLYGSNMGTAEGTARDLADIAMSKGFAPQVATLDSHAGNLPREGAVLIVTASYNGHPPDNAKQFVDWLDQASADEVKGVRYSVFGCGDKNWATTYQKVPAFIDETLAAKGAENIADRGEADASDDFEGTYEEWREHMWSDVAAYFNLDIENSEDNKSTLSLQFVDSAADMPLAKMHGAFSTNVVASKELQQPGSARSTRHLEIELPKEASYQEGGHLGVIPRNYEGTVNRVTARFGLDASQQIRLEAEEEKLAHLPLAKTVSVEELLQYVELQDPVTRTQLRAMAAKTVCPPHKVELEALLEKQAYKEQVLAKRLTMLELLEKYPACEMKFSEFIALLPSIRPRYYSISSSPRVDEKQASITVSVVSGEAWSGYGEYKGIASNYLAELQEGDTITCFISTPQSEFTLPKDPETPLIMVGPGTGVAPFRGFVQARKQLKEQGQSLGEAHLYFGCRSPHEDYLYQEELENAQSEGIITLHTAFSRMPNQPKTYVQHVMEQDGKKLIELLDQGAHFYICGDGSQMAPAVEATLMKSYADVHQVSEADARLWLQQLEEKGRYAKDVWAG
modifications: Mutant P450PMO protein sequence
notes: 7-7 plus G443A and D698G; propane monooxygenase
As for B2, the “increase of total turnovers on propane” value in assay [2] (compared to 139-3) turned out to be 100 fold. In assay [2], the “% rel. act.” value came to 100.0% and the TTN worked out at 20500 ± 1900. Moreover, the “turnovers on propane (TTN)” value in assay [2] (propane-saturated buffer, cofactor regeneration system) was “more than 20,000”.

B3: 20-D3: P450 BM-3 variant, SEQ ID NO:11; 35-E11 plus H285R (protein)
chain: TIKEMPQPKTFGELKNLPLLNTDKPVQALMKIADELGEIFKFEAPGCVTRYLSSQRLIKEACDESRFDKNLSQALKFFRDFSGDGLFTSWTHEINWKKAHNILLPSFSQQAMKGYHAMMVDIAVQLVQKWERLNADEHIEVSEDMTRLTLDTIGLCGFNYRFNSFYRDQPHPFIISMVRALDEVMNKLQRANPDDPAYDENKRQCQEDIKVMNDLVDKIIADRKARGEQSDDLLTQMLNGKDPETGEPLDDGNISYQIITFLIAGHETTSGLLSFALYFLVKNPRVLQKVVEEAARVLVDPVPSYKQVKQLKYVGMVLNEALRLWPTFPAFSLYAKEDTVLGGEYPLEKGDEVMVLIPQLHRDKTIWGDDVEEFRPERFENPSAIPQHAFKPFGNGQRACIGQQFALHEATLVLGMMLKHFDFEDHTNYELDIKETLTLKPEGFVVKAKSKKIPLGGIPSPSTGQSAKKVRKKAENAHNTPLLVLYGSNMGTAEGTARDLADIAMSKGFAPQVATLDSHAGNLPREGAVLIVTASYNGHPPDNAKQFVDWLDQASADEVKGVRYSVFGCGDKNWATTYQKVPAFIDETLAAKGAENIADRGEADASDDFEGTYEEWREHMWSDVAAYFNLDIENSEDNKSTLSLQFVDSAADMPLAKMHGAFSTNVVASKELQQPGSARSTRHLEIELPKEASYQEGDHLGVIPRNYEGTVNRVTARFGLDASQQIRLEAEEEKLAHLPLAKTVSVEELLQYVELQDPVTRTQLRAMAAKTVCPPHKVELEALLEKQAYKEQVLAKRLTMLELLEKYPACEMKFSEFIALLPSIRPRYYSISSSPRVDEKQASITVSVVSGEAWSGYGEYKGIASNYLAELQEGDTITCFISTPQSEFTLPKDPETPLIMVGPGTGVAPFRGFVQARKQLKEQGQSLGEAHLYFGCRSPHEDYLYQEELENAQSEGIITLHTAFSRMPNQPKTYVQHVMEQDGKKLIELLDQGAHFYICGDGSQMAPAVEATLMKSYADVHQVSEADARLWLQQLEEKGRYAKDVWAG
modifications: mutant P450 20-D3 protein sequence
notes: 35-E11 plus H285R
Turning to B3, the “colorimetric response (Purpald)” value in assay [1] is “specific colorimetric response”.
